Source: patent US20260167724A1
“And” between values parts separate entries of the source, which are not always exact repeats. Equal entries are not always repeated.

Biological target: CD3 on the Jurkat cell
Test: cell-based or functional assay

Luciferase Amount, pH 6.0, at CHO-Axl concentration (ng/mL) 0.00000: 893 RLU and 937 RLU
Luciferase Amount, pH 6.0, at CHO-Axl concentration (ng/mL) 0.01000: 1230 RLU and 1330 RLU
Luciferase Amount, pH 6.0, at CHO-Axl concentration (ng/mL) 0.1000: 2310 RLU and 2000 RLU
Luciferase Amount, pH 6.0, at CHO-Axl concentration (ng/mL) 1.000: 10700 RLU and 10000 RLU
Luciferase Amount, pH 6.0, at CHO-Axl concentration (ng/mL) 10.00: 44900 RLU and 46700 RLU
Luciferase Amount, pH 6.0, at CHO-Axl concentration (ng/mL) 100.0: 77200 RLU and 83200 RLU
Luciferase Amount, pH 6.0, at CHO-Axl concentration (ng/mL) 1000.0: 96200 RLU and 90400 RLU
Luciferase Amount, pH 6.0, at CHO-Axl concentration (ng/mL) 10000.0: 100000 RLU and 102000 RLU
Luciferase Amount, pH 7.4, at CHO-Axl concentration (ng/mL) 0.00000: 2280 RLU and 2160 RLU
Luciferase Amount, pH 7.4, at CHO-Axl concentration (ng/mL) 0.01000: 2270 RLU and 2350 RLU
Luciferase Amount, pH 7.4, at CHO-Axl concentration (ng/mL) 0.1000: 3930 RLU and 3970 RLU
Luciferase Amount, pH 7.4, at CHO-Axl concentration (ng/mL) 1.000: 17700 RLU and 18400 RLU
Luciferase Amount, pH 7.4, at CHO-Axl concentration (ng/mL) 10.00: 51800 RLU and 57100 RLU
Luciferase Amount, pH 7.4, at CHO-Axl concentration (ng/mL) 100.0: 94100 RLU and 99200 RLU
Luciferase Amount, pH 7.4, at CHO-Axl concentration (ng/mL) 1000.0: 113000 RLU and 112000 RLU
Luciferase Amount, pH 7.4, at CHO-Axl concentration (ng/mL) 10000.0: 135000 RLU and 139000 RLU
B1: Axl-WT×CD3-WT (bispecific antibody, part only; not given: constant regions and linkers, not shown: a dimerising Fc or GST)
heavy: EVQLVQSGAEVKKPGATVKISCKVSGYSFTGHTMNWIRQPPGKGLEWIGLIKPSNGGTSYNQKFKGRVTISADKSISTAYLQWSSLKASDTAMYYCAHGHYESYFAMDYWGQGTSVTVSS
light (part 1 of 2), part: DIQMTQSPSSLSASVGDRVTITCKASQDVSSAVAWYQQKPGQAPRLLIYWASTRHTGVPSRFSGSGSGTEFTLTISSLQPDDFATYYCQEHFSTPLTFGQGTKVEIK
light (part 2 of 2), part: QAVVTQEPSLTVSPGGTVTLTCRSSTGAVTTSNYANWVQQKPGQAPRGLIGGTNKRAPWTPARFSGSLLGGKAALTITGAQAEDEADYYCALWYSNLWVFGGGTKLTVLGEVQLVESGGGLVQPGGSLRLSCAASGFTFNTYAMNWVRQAPGKGLEWVARIRSKYNNYATYYADSVKDRFTISRDDSKNSLYLQMNSLKTEDTAVYYCVRHGNFGNSYVSWFAYWGQGTLVTVSS
